Experimental findings from US20170334973A1 (INTEGRATED BIOTHERAPEUTICS, published 2017) are described below.

The target of one assay is SUDV GPddmuc (Sudan virus (SUDV), UniProt Q66814 33-650). As to the kind of experiment: ELISA. On the technique in general: In an ELISA, binding on a coated surface is turned into a signal by an enzyme label.
The target of the next assay is EBOV GPddmuc (Ebola virus (EBOV), UniProt Q05320 33-650). Nature of the assay: ELISA.
The target of a further assay is MARV GPddmuc (Marburg virus (MARV), UniProt P35253 19-648). As to the kind of experiment: native ELISA.

B1: FVM01P (antibody, V domains shown)
VH: QVQLQESGPGLVKPSETLSLTCTVSGASISNYRWNWIRQPPGKGLEWIGEINGYSGSTNYNPSLKSRVTISKDASKNQFSLKLTSVTAADTAVYYCPIIGGFTLEWFDVWGPGVLVTVSS
VL: DVVLTQSPSSLSASVGDRVTITCRASQGIRNYLNWYQQKPRKAPKLLIYAASSLQSGVPSRFSGSGSGTEFTLTISSLQAEDFATYYCLQGYRTPFTFGPGTKLDIKR
Consider B1, for which the values for the EC50 with SUDV GPddmuc and with EBOV GPddmuc were 0.047 nM and 0.057 nM, respectively. The binding result with MARV GPddmuc is recorded as “no binding”.

B2: FVM05 (antibody, V domains shown)
VH: QVQLQESGPGLVKPSETLSLTCAVSGFSISSGYGWSWIRQPPGKGLEWIGYIGGSSGSTSYNPSLKSRVTLSADTSKNQFSLKLSSVTAADTAVYYCARRYSSYRSWFDVWGPGVLVTVSS
VL: SSGLTQPRSVSVSPGQTARITCGGDNIGSKSVHWYQQKPPQAPVLVIYADSERPSGIPERFSGSNSGNTATLTISGVEAGDEADYYCQVWDSSSDHWVFGGGTRLTVL
For the molecule B2, the EC50 (in general, the concentration at which the effect is half-maximal) with EBOV GPddmuc turned out to be 2.67 nM. In addition, the binding result with MARV GPddmuc is recorded as “no binding”.

B3: FVM29 (antibody, V domains shown)
VH: EVQLVQSGAEVKRPGESLKISCQTSGNSFTNNWISWVRQMPGKGLEWMGAIDPSDSETRYSPSFQGQVTISADKSINTAYLQWSSLKASDTATYYCVKGSETWGQGVLVTVSS
VL: QPVLTQPASLSASPGASASLTCTFSGGINVAGYNILWYQQKAGSPPRYLLRYKSDSTKDQGSGVPSRFSGSKDASANTGILRISGLQSEDEADYYCAIGHSSGWIFGGGTRLTVL
In the case of B3, in the assay with SUDV GPddmuc, a half-maximal response (EC50) required 12.8 nM. Moreover, the binding result with MARV GPddmuc is recorded as “no binding”.

B4: FVM10 (antibody, V domains shown)
VH: QVQLVQSGAEVKRPGESLKISCQTSGYSFTDSWVAWVRQMPGKGLEWLGSIYPGDSETKYNPSFQGHVTISADKSISTAYLQWSSLKASDTATYYCAKGSETWGQGLRVTVSS
VL: QAGLTQPASLSASPGASASLTCTFSGGINVAGYNILWYQQKPGSPPRYLLRYKSDSDKDQGSGVPSRFSGSKDASANTGILRISGLQSEDEADYYCAIGHSSGWIFGGGTRLTVL
Turning to B4, the EC50 in the assay with SUDV GPddmuc came out at 0.082 nM; with EBOV GPddmuc, 0.079 nM. Moreover, the binding result with MARV GPddmuc was “no binding”.

B5: FVM39 (antibody, V domains shown)
VH: EVQLVQSGAEVKRPGESLRISCKTSGYSFTDSWISWVRQMPGKGLEWLGSIYPGDSETKYNPSFQGHVTISADKSVTTTYLKWSSLKASDTATYYCVKGSETWGQGVLVTVSS
VL: QPVLTQPASLSASPGASASLTCTFSGGINVAGYNILWYQQKAGSPPRYLLRYKSDSTKDQGSGVPSRFSGSKDASANTGILRISGLQSEDEADYYCAIGHSSGWIFGGGTRLTVL
As to B5, the EC50 worked out at 0.02 nM in the assay with SUDV GPddmuc and 0.027 nM with EBOV GPddmuc. The binding result with MARV GPddmuc is “no binding”.

B6: FVM08 (antibody, V domains shown)
VH: EVQLVQSGAEVKRPGESLTISCKTSGYSFTDSWVAWVRQMPGKGLEWMGSIYPGDSDTRYNPSFEGQVTISADKSISTTYLQWSSLRASDTATYYCVKGADDWGQGVLVTVSS
VL: QPVLTQPASLSASPGASASLTCTFSGGINVAGYNILWYQQKAGSPPRYLLRYKSDSTKDQGSGVPSRFSGSKDASANTGILRISGLQSEDEADYYCAIGHSSGWIFGGGTRLTVL
Take B6: the results for the EC50 in the assay with SUDV GPddmuc and with EBOV GPddmuc were 0.048 nM and 0.461 nM, respectively. The binding result with MARV GPddmuc is recorded as “no binding”.

B7: FVM07 (antibody, V domains shown)
VH: EVQLVQSGAEVKRPGESLTISCKTSGYSFTDSWIGWVRQMPGKGLEWMGSIYPGDSDTKYNPSFQGHVTISADKSISTTYLQWSSLKASDTATYYCVAREAYWGQGVLVTVSS
VL: QPVLTQPASLSASPGASASLTCTFSGGINVAGYHIFWYQQKPGSPPRYLLRYKSDSDKGQGSGVPSRFSGSKDASANTGILRISGLQSEDEADYYCAIGHSSGVLFGGGTRLTVL
Turning to B7, the EC50 with SUDV GPddmuc came to 0.491 nM; in the assay with EBOV GPddmuc, 0.119 nM. Besides, the binding result in the assay with MARV GPddmuc is listed as “no binding”.

B8: FVM22 (antibody, V domains shown)
VH: EVQLVQSGAEVKRPGESLTISCKTSGYSFTDSWVAWVRQMPGKGLEWLGSIYPGDSETKYNPSFQGHVTISADKSISTAYLQWSSLKASDTATYYCAKGSETWGQGVLVTVSS
VL: SSGLTQPASLSASPGASASLTCTFSGGINVAGYNILWYQQKAGSPPRYLLRYKSDSTKDQGSGVPSRFSGSKDASANTGILRISGLQSEDEADYYCAIGHSSGWIFGGGTRLTVL
As for B8, the concentration giving a half-maximal response (EC50) with SUDV GPddmuc was determined as 0.6 nM; with EBOV GPddmuc, 0.067 nM. For the same molecule, the binding result in the assay with MARV GPddmuc is “no binding”.

B9: FVM27 (antibody, V domains shown)
VH: EVQLVQSGAEVKRPGESLKISCKTSGYSFASSWISWVRQMPGKGLEWMGAIDPSDSATRYSPSFQGQVTISADKSISTAYLQWSSLKASDTATYYCVKGSETWGQGVLVTVSS
VL: QPVLTQPASLSASPGASASLTCTFSGGINVAGYNILWYQQKAGSPPRYLLRYKSDSTKDQGSGVPSRFSGSKDASANTGILRISGLQSEDEADYYCAIGHSSGWIFGGGTRLIVL
Consider B9, for which the 50% effective concentration (EC50) with SUDV GPddmuc turned out to be 0.04 nM; in the assay with EBOV GPddmuc it was 0.047 nM. In the assay with MARV GPddmuc, the binding result was “no binding”.

B10: FVM31 (antibody, V domains shown)
VH: QVQLVQSGAEVKRPGESLTISCKTSGYSFTDSWVAWVRQMPGKGLEWLGSIYPGDSDARYNPSFQGHVTISADTSVTTTYLKWSSLKASDTATYYCVKGSETWGQGVLVTVSS
VL: KPMLTQPASLSASPGASASLTCTFSGGINVAGYNILWYQQKAGSPPRYLLRYKSDSTKDQGSGVPSRFSGSKDASANTGILRISGLQSEDEADYYCAIGHSSGWIFGGGTRLTVL
On to B10, for which the half-maximal effective concentration (EC50) was determined as 0.093 nM with SUDV GPddmuc and 0.107 nM with EBOV GPddmuc. For the same molecule, in the assay with MARV GPddmuc, the binding result is given as “no binding”.

B11: FVM06 (antibody, V domains shown)
VH: EVQLVQSGAEVKRPGESLTISCKTSGYSFTNYWISWVRQMPGEGLEWMGAIDPSDSDTRYSPSFQGQVTMSADKSITTAYLQWSSLKASDTATYYCVKGSETWGQGVLVTVSS
VL: QPVLTQPASLSASPGASASLTCTFSGGINVAGYNILWYQQKAGSPPRYLLRYKSDSTKDQGSGVPSRFSGSKDASANTGILRISGLQSEDEADYYCAIGHSSGWIFGGGTRLTVL
For the molecule B11, the half-maximal effective concentration (EC50) in the assay with SUDV GPddmuc worked out at 0.05 nM; with EBOV GPddmuc, 0.059 nM. For the same molecule, in the assay with MARV GPddmuc, the binding result is given as “no binding”.

B12: FVM36 (antibody, V domains shown)
VH: EVQLVQSGAEVKRPGESLTISCKTSGYSFTDNWISWVRQMPGKGLEWMGSIYPGDSETKYNPSFQGHVTISADKSVTTTYLKWSSLKASDTATYYCVKGSETWGQGVLVTVSS
VL: QSVLTQPASLSASPGASASLTCTFSGGINVAGYNILWYQQKAGSPPRYLLRYKSDSTKDQGSGVPSRFSGSKDASANTGILRISGLQSEDEADYYCAIGHSSGWIFGGGTRLTVL
For B12, the binding result with MARV GPddmuc was “no binding”.

B13: FVM26 (antibody, V domains shown)
VH: QVQLVQSGAEVKRPGESLRISCKTSGYTFTDYWIAWVRQMPGKGLEWMGSIYPGDSETKYNPSFQGHVTISADKSVTTTYLKWSRLKASDTATYYCVKGSETWGQGVLVTVSS
VL: QPVLTQPASLSASPGASASLTCTFSGGINVAGYNILWYQQKAGSPPRYLLRYKSDSTKDQGSGVPSRFSGSKDASANTGILRISGLQSEDEADYYCAIGHSSGWIFGGGTRLTVL
For B13, the concentration giving a half-maximal response (EC50) with SUDV GPddmuc worked out at 0.08 nM; with EBOV GPddmuc, 0.1 nM. The binding result in the assay with MARV GPddmuc is “no binding”.

B14: FVM15 (antibody, V domains shown)
VH: QVQLVQSGAEVKRPGESLRISCKTSGYTFTDYWIAWVRQMPGKGLEWMGSIYPGDSETKYNPSFQGHVTISADKSVTTTYLKWSRLKASDTATYYCVKGSETWGQGVLVTVSS
VL: QPVLTQPASLSASPGASASLTCTFSGGINVAGYNILWYQQKAGSPPRYLLRYKSDSTKDQGSGVPSRFSGSKDASANTGILRISGLQSEDEADYYCAIGHSSGWIFGGGTRLTVL
On to B14, for which the figures for the EC50 with SUDV GPddmuc and in the assay with EBOV GPddmuc were 0.035 nM and 0.042 nM, respectively. Moreover, the binding result with MARV GPddmuc is recorded as “no binding”.

B15: FVM42 (antibody, V domains shown)
VH: EVQLVESGAEVKRPGESLTISCKTSGYSFTDSWVAWVRQMPGKGLEWMGSIYPGDSETKYNPSFQGHVTISADKSVTTTYLKWSSLKASDTATYYCVKGSETWGQGVLVTVSS
VL: QTVVTQPASLSASPGASASLTCTFSGGINVAGYNILWYQQKAGSPPRYLLRYKSDSTKDQGSGVPSRFSGSKDASANTGILRISGLQSEDEADYYCAIGHSSGWIFGGGTRLTVL
For the molecule B15, the binding result with MARV GPddmuc is reported as “no binding”.

B16: FVM16 (antibody, V domains shown)
VH: EVQLVQSGAEVKRPGESLKISCRTSGYSFTSTWINWVRQMPGKGLEWLGSIYPGDSETKYNPSFQGHVTISADKSVTTTYLKWSSLKASDTATYYCVKGSETWGQGVLVTVSS
VL: KPMLTQPASLSASPGASASLTCTFSGGINVAGYNILWYQQKAGSPPRYLLRYKSDSTKDQGSGVPSRFSGSKDASANTGILRISGLQSEDEADYYCAIGHSSGWVFGGGTRLTVL
On to B16, for which the results for the EC50 in the assay with SUDV GPddmuc and with EBOV GPddmuc were 0.059 nM and 0.066 nM, respectively. Moreover, in the assay with MARV GPddmuc, the binding result was “no binding”.

B17: FVM11 (antibody, V domains shown)
VH: EVQLVQSGAEVKRPGESLTISCKTSGYSFTDSWVAWVRQMPGKGLEWLGSIYPGDSETKYNPSFQGHVTISADKSVTTTYLKWSSLKASDTATYYCVKGSETWGQGVLVTVSS
VL: NFMLTQPASLSASPGASASLTCTFSGGINVAGYNILWYQQKAGSPPRYLLRYKSDSTKDQGSGVPSRFSGSKDASANTGILRISGLQSEDEADYYCAIGHSSGWIFGGGTRLTVL
Take B17: the 50% effective concentration (EC50) with SUDV GPddmuc is 0.053 nM; with EBOV GPddmuc, 0.059 nM. Further, the binding result with MARV GPddmuc was “no binding”.

B18: FVM14 (antibody, V domains shown)
VH: EVQLVQSGAEVKRPGESLKISCQTSGYSFTSTWITWVRQMPGKGLEWLGSIYPGDSETKYNPSFQGHVTISADKSISTTYLQWNSLKASDTATYYCVKGSETWGQGVLVTVSS
VL: QAVVTQPASLSASPGASASLTCTFSGGINVAGYNILWYQQKAGSPPRYLLRYKSDSTKDQGSGVPSRFSGSKDASANTGILRISGLQSEDEADYYCAIGHSSGWIFGGGTRLTVL
As to B18, the EC50 in the assay with SUDV GPddmuc came out at 0.077 nM; with EBOV GPddmuc, 0.086 nM. In the assay with MARV GPddmuc, the binding result is on record as “no binding”.
